Source: article PMC12802937
Residue numbers refer to the chain shown, from its start. In names and notes the source's numbering stands. Each block holds one binder with its values, some of them ahead of it.

Columns and labels:
[1] = biological target: RNF-MD S5i (E766K in RNF20 and K57E/R804E in RNF40) (human) (UniProt Q5VTR2); assay: SPR; RNF-MD immobilised on a CM5 chip, intein-WAC flown over; Biacore 8K, 25°C, 20 mM HEPES (pH 7.5), 200 mM sodium chloride, 0.02% Tween 20
[2] = biological target: RNF-MD S4i (D780K in RNF20) (human) (UniProt Q5VTR2); assay: as above

Kd [1]: 464 nM
koff [1]: 0.0142 s⁻¹
kon [1]: 30500 M⁻¹ s⁻¹
B1: intein-CBD-tagged WAC-CT (WAC residues 570–647) (domain or fragment)
chain: HVQGWPADHAEKQASRLREEAHNMGTIHMSEICTELKNLRSLVRVCEIQATLREQRILFLRQQIKELEKLKNQNSFMV

Kd [2]: 249 nM
koff [2]: 0.0435 s⁻¹
kon [2]: 17500 M⁻¹ s⁻¹
B2: intein-WAC S4 (R630E) (domain or fragment)
chain: B1 chain with R61E
